Measured values published in patent US20040110131A1.

Target: TGFβ in media conditioned by B16F10 melanoma cells (murine (produced by murine B16F10 cells))
Test: cell-based or functional assay

| level of active TGFβ as percent of total TGFβ (MLEC PAI-1 promoter luciferase assay) (% of total TGFβ) | Substance |
| --- | --- |
| 4.8 | TSR2 recombinant protein (second type 1 repeat of human TSP-1 without the DKRFK sequence, amino acids 416-473) |
| 30 | TSR2+RFK recombinant protein (second type 1 repeat of human TSP-1 with the RFK sequence, amino acids 411-473) |
